The target of the experiment is recombinant scavenger receptor cysteine-rich domain 1 of Gp340 (salivary agglutinin), expressed in insect cells (UniProt Q9UGM3). In words: SPR; Biacore T200; iSRCR1 immobilised on a CM5 chip by amine coupling; analyte GtfB-CD 2-8 uM in 20 mM HEPES pH 7.4, 150 mM NaCl, 1 mM CaCl2, 20 ul/min; each concentration in triplicate; kinetic fit with Biacore Insight Evaluation software.
recombinant scavenger receptor cysteine-rich domain 1 of Gp340 (salivary agglutinin), expressed in insect cells, sequence (Q9UGM3 20-2413): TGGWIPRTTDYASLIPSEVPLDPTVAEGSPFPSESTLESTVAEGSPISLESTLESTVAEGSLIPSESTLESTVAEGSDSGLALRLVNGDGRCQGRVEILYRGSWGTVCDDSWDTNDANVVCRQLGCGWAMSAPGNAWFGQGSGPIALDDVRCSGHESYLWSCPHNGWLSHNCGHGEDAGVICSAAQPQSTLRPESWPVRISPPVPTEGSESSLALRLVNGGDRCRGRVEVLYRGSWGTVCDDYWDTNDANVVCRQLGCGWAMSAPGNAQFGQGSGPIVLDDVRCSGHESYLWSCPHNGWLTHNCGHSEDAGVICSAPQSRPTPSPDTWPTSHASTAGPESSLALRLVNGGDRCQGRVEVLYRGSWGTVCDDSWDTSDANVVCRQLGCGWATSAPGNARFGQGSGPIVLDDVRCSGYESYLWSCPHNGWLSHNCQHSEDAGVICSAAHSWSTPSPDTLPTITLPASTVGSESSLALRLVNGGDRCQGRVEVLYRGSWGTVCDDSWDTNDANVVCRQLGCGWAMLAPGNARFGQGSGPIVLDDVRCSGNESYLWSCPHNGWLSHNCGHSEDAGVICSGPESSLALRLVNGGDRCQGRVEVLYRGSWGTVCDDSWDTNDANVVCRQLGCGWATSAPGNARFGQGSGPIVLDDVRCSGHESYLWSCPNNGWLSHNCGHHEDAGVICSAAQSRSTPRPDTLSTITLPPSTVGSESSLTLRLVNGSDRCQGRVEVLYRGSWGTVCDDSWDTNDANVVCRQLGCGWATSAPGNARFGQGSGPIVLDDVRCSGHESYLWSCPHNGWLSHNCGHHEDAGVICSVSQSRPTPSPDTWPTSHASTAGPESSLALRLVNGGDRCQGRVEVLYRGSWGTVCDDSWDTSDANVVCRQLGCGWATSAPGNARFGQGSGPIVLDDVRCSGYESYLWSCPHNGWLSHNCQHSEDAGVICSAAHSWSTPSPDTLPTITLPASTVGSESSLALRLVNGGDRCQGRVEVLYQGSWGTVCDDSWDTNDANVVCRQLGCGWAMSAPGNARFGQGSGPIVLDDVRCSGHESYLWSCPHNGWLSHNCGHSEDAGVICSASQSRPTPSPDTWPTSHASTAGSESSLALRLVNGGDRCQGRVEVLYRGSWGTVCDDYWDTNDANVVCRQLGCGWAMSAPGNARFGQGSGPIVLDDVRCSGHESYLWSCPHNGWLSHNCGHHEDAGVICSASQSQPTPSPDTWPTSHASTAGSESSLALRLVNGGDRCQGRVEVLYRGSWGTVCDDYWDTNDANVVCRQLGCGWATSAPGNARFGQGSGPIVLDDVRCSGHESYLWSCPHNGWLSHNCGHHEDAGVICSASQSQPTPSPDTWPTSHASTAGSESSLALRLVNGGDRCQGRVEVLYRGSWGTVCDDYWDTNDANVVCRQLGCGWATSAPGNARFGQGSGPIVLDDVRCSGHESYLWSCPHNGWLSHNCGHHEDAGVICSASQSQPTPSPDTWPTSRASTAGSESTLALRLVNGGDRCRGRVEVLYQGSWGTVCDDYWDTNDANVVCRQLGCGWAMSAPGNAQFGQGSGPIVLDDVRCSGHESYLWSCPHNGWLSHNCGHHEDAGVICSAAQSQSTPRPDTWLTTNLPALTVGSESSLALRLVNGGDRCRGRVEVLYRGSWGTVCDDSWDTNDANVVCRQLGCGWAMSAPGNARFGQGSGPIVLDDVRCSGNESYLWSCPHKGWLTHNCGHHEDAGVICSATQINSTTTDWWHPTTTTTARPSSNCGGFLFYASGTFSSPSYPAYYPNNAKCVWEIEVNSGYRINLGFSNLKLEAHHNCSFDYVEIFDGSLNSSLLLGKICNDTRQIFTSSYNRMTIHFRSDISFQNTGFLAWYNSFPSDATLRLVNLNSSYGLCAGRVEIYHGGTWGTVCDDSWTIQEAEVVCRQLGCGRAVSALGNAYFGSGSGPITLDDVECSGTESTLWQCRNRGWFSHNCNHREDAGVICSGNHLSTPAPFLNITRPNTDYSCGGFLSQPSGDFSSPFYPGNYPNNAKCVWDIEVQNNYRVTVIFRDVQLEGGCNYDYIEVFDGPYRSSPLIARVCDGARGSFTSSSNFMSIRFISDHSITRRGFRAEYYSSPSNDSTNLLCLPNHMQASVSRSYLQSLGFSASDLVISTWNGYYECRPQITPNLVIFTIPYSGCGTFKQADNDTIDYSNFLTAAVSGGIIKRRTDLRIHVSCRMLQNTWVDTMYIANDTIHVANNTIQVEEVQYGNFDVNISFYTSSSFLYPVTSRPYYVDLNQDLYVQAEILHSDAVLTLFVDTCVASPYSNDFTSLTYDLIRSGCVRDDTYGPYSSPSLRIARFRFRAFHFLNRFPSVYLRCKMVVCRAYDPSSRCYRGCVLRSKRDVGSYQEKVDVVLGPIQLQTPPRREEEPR

B1: catalytic domain of Streptococcus mutans (UA159) glucosyltransferase GtfB, residues 191-1051 (domain or fragment)
chain: LHFDETGAYTDTSIDTVNKDIVTTRSNLYKKYNQVYDRSAQSFEHVDHYLTAESWYRPKYILKDGKTWTQSTEKDFRPLLMTWWPSQETQRQYVNYMNAQLGINKTYDDTSNQLQLNIAAATIQAKIEAKITTLKNTDWLRQTISAFVKTQSAWNSDSEKPFDDHLQNGAVLYDNEGKLTPYANSNYRILNRTPTNQTGKKDPRYTADNTIGGYEFLLANDVDNSNPVVQAEQLNWLHFLMNFGNIYANDPDANFDSIRVDAVDNVDADLLQIAGDYLKAAKGIHKNDKAANDHLSILEAWSDNDTPYLHDDGDNMINMDNKLRLSLLFSLAKPLNQRSGMNPLITNSLVNRTDDNAETAAVPSYSFIRAHDSEVQDLIRDIIKAEINPNVVGYSFTMEEIKKAFEIYNKDLLATEKKYTHYNTALSYALLLTNKSSVPRVYYGDMFTDDGQYMAHKTINYEAIETLLKARIKYVSGGQAMRNQQVGNSEIITSVRYGKGALKATDTGDRTTRTSGVAVIEGNNPSLRLKASDRVVVNMGAAHKNQAYRPLLLTTDNGIKAYHSDQEAAGLVRYTNDRGELIFTAADIKGYANPQVSGYLGVWVPVGAAADQDVRVAASTAPSTDGKSVHQNAALDSRVMFEGFSNFQAFATKKEEYTNVVIAKNVDKFAEWGVTDFEMAPQYVSSTDGSFLDSVIQNGYAFTDRYDLGISKPNKYGTADDLVKAIKALHSKGIKVMADWVPDQMYAFPEKEVVTATRVDKFGKPVEGSQIKSVLYVADSKSSGKDQQAKYGGAFLEELQAKYPELFARKQISTGVPMDPSVKIKQWSAKYFNGTNILGRGAGYVLKDQATNTYFNISDNK
With B1, the koff turned out to be 0.00152 s⁻¹ and the kon came out at 2990 M⁻¹ s⁻¹.

Source of the values: paper PMC10167749.
